Test results: patent publication US20100323974A1

Assays:
[1] = target: poly(ADP-ribose) polymerase I (PARP-1), native, co-purified from HeLa cells (UniProt P09874); assay: cell-based or functional assay
[2] = target: mutated e-mH2A1.1 nucleosome complex (HXTX motif at positions 213-216 converted to AAAA) (human) (UniProt O75367); assay: tagged nucleosome complexes isolated at 300 mM NaCl, silver stained SDS-PAGE, PARP-1 relative to histone H1
Chain of mutated e-mH2A1.1 nucleosome complex (HXTX motif at positions 213-216 converted to AAAA) (human) (O75367 whole entry, change not shown, one chain of several): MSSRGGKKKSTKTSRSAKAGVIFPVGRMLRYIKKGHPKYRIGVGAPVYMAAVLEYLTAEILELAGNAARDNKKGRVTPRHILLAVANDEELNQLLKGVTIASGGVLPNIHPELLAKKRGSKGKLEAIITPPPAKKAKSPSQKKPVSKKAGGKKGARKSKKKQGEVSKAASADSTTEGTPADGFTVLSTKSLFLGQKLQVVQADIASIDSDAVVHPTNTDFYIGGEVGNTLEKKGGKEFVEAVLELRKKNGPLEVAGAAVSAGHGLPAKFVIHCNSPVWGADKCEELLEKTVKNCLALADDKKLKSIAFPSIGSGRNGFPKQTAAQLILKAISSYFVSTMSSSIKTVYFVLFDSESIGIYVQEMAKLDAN

Chain of poly(ADP-ribose) polymerase I (PARP-1), native, co-purified from HeLa cells (P09874 2-1014 limits assumed): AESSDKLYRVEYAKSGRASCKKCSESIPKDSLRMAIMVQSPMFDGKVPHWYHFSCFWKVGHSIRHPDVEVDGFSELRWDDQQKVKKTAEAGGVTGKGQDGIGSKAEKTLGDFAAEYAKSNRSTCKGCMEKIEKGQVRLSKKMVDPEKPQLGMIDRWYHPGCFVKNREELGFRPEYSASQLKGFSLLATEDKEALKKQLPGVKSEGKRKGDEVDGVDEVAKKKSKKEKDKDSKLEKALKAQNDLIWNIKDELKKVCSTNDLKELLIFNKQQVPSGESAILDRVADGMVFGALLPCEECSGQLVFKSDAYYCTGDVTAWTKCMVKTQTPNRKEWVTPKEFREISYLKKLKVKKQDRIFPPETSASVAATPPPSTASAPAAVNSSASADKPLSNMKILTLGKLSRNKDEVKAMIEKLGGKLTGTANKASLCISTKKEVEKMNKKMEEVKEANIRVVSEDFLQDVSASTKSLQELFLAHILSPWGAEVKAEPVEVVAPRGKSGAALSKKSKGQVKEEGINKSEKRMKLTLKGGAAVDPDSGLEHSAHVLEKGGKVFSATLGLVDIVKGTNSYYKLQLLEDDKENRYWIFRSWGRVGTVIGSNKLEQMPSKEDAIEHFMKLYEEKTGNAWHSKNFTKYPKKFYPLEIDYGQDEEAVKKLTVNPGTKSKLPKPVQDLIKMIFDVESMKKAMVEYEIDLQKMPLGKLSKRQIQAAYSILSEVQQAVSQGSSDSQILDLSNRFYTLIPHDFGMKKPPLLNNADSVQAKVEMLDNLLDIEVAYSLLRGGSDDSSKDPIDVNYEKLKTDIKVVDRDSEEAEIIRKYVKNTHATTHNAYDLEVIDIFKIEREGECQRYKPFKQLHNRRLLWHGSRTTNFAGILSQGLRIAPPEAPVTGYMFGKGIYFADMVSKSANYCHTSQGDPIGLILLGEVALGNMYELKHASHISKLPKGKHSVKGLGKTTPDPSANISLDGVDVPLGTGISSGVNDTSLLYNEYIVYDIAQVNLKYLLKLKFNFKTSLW

extent of PARP-1 labeling during the first minute, against PARP-1 associated with the wild type e-mH2A1.1 nucleosomes [1]	amount of PARP-1 associated, percent of that associated with the WT emH2A1.1 nucleosome complex [2]	Substance
37 times	–	mutated e-mH2A1.1 nucleosome complex (HXTX motif at positions 213-216 converted to AAAA) (from UniProt O75367 1-369)
–	8 to 10%	poly(ADP-ribose) polymerase I (PARP-1), native, co-purified from HeLa cells (from UniProt P09874 2-1014)
